Reference: publication PMC5705538 (Journal of molecular biology, 2017)
Where “and” joins values, the source holds several entries; their conditions need not be identical. Equal entries are not always repeated.

Assays:
SEC-MALS = molecular target: the molecule itself; assay: SEC-MALS
M1-linked di-ubiquitin = M1-linked di-ubiquitin (UniProt P0CG48 1-76; P0CG48 1-76); assay: SEC

B1: NEMO (150–350) (domain or fragment, human, UniProt Q9Y6K9 150-350, looked up)
chain: LGELQESQSRLEAATKECQALEGRARAASEQARQLESEREALQQQHSVQVDQLRMQGQSVEAALRMERQAASEEKRKLAQLQVAYHQLFQEYDNHIKSSVVGSERKRGMQLEDLKQQLQQAEEALVAKQEVIDKLKEEAEQHKIVMETVPVLKAQADIYKADFQAERQAREKLAEKKELLQEQLEQLQREYSKLKASCQES
stoichiometry N (SEC-MALS): 2 and 4
binding result (M1-linked di-ubiquitin): binds

B2: NEMO UBAN (192–350) (domain or fragment, human, UniProt Q9Y6K9 192-350, looked up)
chain: QQQHSVQVDQLRMQGQSVEAALRMERQAASEEKRKLAQLQVAYHQLFQEYDNHIKSSVVGSERKRGMQLEDLKQQLQQAEEALVAKQEVIDKLKEEAEQHKIVMETVPVLKAQADIYKADFQAERQAREKLAEKKELLQEQLEQLQREYSKLKASCQES
binding result (M1-linked di-ubiquitin): binds

B3: NEMO UBAN-ZF (246–419) (domain or fragment, human, UniProt Q9Y6K9 246-419, looked up)
chain: KSSVVGSERKRGMQLEDLKQQLQQAEEALVAKQEVIDKLKEEAEQHKIVMETVPVLKAQADIYKADFQAERQAREKLAEKKELLQEQLEQLQREYSKLKASCQESARIEDMRKRHVEVSQAPLPPAPAYLSSPLALPSQRRSPPEEPPDFCCPKCQYQAPDMDTLQIHVMECIE
binding result (M1-linked di-ubiquitin): binds

B4: NEMO (112–350) (domain or fragment, human, UniProt Q9Y6K9 112-350, looked up)
chain: LDLKRQKEQALREVEHLKRCQQQMAEDKASVKAQVTSLLGELQESQSRLEAATKECQALEGRARAASEQARQLESEREALQQQHSVQVDQLRMQGQSVEAALRMERQAASEEKRKLAQLQVAYHQLFQEYDNHIKSSVVGSERKRGMQLEDLKQQLQQAEEALVAKQEVIDKLKEEAEQHKIVMETVPVLKAQADIYKADFQAERQAREKLAEKKELLQEQLEQLQREYSKLKASCQES
stoichiometry N (SEC-MALS): 2
